Literature values, collected in PMC10746204.
pKd: −log10 of the molar value.

Target: IFNAR2 (Homo sapiens) (UniProt P48551)
Chain of UniProt P48551 (P48551 27-243): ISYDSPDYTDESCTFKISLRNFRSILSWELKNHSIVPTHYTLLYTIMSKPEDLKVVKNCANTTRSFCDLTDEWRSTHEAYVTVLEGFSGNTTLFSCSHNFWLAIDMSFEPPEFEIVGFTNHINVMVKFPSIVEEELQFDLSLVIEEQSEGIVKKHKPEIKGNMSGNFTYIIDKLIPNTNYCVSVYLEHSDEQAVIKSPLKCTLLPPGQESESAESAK

## IFNα14 (from UniProt P01570)
  pKd: 9.15
